Drawing on patent US20030104352, this text covers activity (% TetR colonies), activity and binding signal (mutability value) for seven substances.

In this data set the target is T1, LtrA (L1.LtrB group II intron-encoded protein) (Lactococcus lactis) (UniProt P0A3U0).
T1 sequence: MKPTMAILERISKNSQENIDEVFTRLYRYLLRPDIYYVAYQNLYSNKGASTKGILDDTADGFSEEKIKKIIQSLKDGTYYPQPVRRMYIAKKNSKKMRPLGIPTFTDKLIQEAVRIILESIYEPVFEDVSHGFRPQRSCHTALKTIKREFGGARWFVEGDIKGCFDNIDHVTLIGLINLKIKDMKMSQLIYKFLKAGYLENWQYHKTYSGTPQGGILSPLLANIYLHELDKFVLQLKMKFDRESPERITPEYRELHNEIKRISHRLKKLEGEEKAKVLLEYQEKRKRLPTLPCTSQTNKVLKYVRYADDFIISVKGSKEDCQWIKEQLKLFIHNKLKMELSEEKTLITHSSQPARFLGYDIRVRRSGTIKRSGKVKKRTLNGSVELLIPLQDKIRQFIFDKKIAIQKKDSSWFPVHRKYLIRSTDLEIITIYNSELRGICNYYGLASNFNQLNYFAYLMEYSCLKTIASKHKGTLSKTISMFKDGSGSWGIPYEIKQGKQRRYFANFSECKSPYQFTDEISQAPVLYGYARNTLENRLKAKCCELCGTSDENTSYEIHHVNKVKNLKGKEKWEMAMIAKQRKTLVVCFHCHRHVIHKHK
The data set is described as follows: cell_activity. To be noted: for activity: after IPTG induction; for binding signal (mutability value): doped target pool selection.

As for “L1.LtrB deltaORF intron RNA ; L1.LtrB DNA target -30 to +15”, the activity (% TetR colonies) (100 uM IPTG, ~70% without IPTG) was determined as 100.

In turn, “retargeted L1.LtrB intron HIV1-4021s ; HIV-1 proviral target 4021s” had an activity greater than 60 % mobility.

In turn, “L1.LtrB deltaORF intron RNA ; L1.LtrB target C-7A” registered a binding signal (mutability value) ([24 (-7 C>A)], preferred over wild type) of 3.83.

As for “L1.LtrB deltaORF intron RNA ; L1.LtrB target G-21A”, the binding signal (mutability value) ([10 (-21 G>A)]) is -0.6.

Turning to “L1.LtrB deltaORF intron RNA ; L1.LtrB target G-21C”, the binding signal (mutability value) ([10 (-21 G>C)]) is -0.9.

Consider “L1.LtrB deltaORF intron RNA ; L1.LtrB target G-21T”, for which the binding signal (mutability value) ([10 (-21 G>T)], absent from active sites) is -1.

Where the note is “also inserted in human cells (p89)”, “retargeted L1.LtrB intron HIV1-4069s ; HIV-1 pol target 4069s” yielded an activity greater than 60 % mobility.
